Measured values as given in patent US20120196803A1.

Target: GFRα1 receptor/IgG Fc fusion
Assay: double sandwich ELISA, GFRα1/IgG Fc captured on plate

Substance	Bmax	Kd
An2-Rig-hGDNF (N-terminal Angiopep-2 fused to hGDNF^78-211 through a rigid (PAPAP) linker) (from UniProt P39905 78-211)	0.202 A405/min	0.82 nM
An2-hGDNF (N-terminal Angiopep-2 fused to hGDNF^78-211) (from UniProt P39905 78-211)	0.146 A405/min	0.68 nM
An2NT-hGDNF (N-terminal reversed sequence Angiopep-2 fused to hGDNF^78-211) (from UniProt P39905 78-211)	0.161 A405/min	0.31 nM
hGDNF-An2 (C-terminal Angiopep-2 fused to hGDNF^78-211) (from UniProt P39905 78-211)	0.155 A405/min	0.53 nM

The next substances have a lower Kd than those just listed; values first:

Bmax	Kd	Substance
0.142 A405/min	0.27 nM	An2-Hel-hGDNF (N-terminal Angiopep-2 fused to hGDNF^78-211 through a helical (A(EAAAK)2A) linker) (from UniProt P39905 78-211)
0.155 A405/min	0.24 nM	GDNF (hGDNF^78-211) (from UniProt P39905 78-211) (ligand)
0.161 A405/min	0.16 nM	An2-Flex-hGDNF (N-terminal Angiopep-2 fused to hGDNF^78-211 through a flexible ((GGGGS)2) linker) (from UniProt P39905 78-211)
